Data published in paper PMC9846428, “EEPD1 promotes repair of oxidatively-stressed replication forks”.

B1: fork DNA without abasic site (Oligos D, F, G, H) (structured_DNA)
DNA 1: CATGCAGCTGATGCGTACAACACACTGTG
DNA 2: TTTTCCCCCCCCCCCGCATCAGCTGCATG
DNA 3: CACAGTGTGTTGTA
DNA 4: GGGGGGGGGGAAAA

Assays:
APE1 (Homo sapiens) = APE1 (Homo sapiens) (UniProt P27695); assay: fluorescence polarization; settings: 5 nM DNA, no Mg2+ listed, THF at nt 15 of strand 1 (N), EMSA: 20 mM HEPES pH 7.9, 1 mM DTT, 30 mM NaCl, 0.03% NP-40, 10% glycerol, 1 ug poly(dI-dC), 20 min room temperature, FP: 10 mM HEPES pH 7.5, 50 mM KCl
Sequence of APE1 (Homo sapiens) (P27695 whole entry): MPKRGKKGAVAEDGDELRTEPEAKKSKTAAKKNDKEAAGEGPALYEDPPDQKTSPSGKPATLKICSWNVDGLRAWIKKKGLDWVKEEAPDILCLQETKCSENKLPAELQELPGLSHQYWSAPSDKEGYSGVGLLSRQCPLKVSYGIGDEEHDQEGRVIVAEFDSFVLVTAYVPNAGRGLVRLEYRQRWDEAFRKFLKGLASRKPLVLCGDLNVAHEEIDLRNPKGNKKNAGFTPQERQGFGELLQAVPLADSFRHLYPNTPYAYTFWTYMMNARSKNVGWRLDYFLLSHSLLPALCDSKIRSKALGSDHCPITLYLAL

EEPD1 (Homo sapiens) = target: T1, EEPD1 (Homo sapiens) (UniProt Q7L9B9); assay: fluorescence polarization; settings: 5 nM DNA, no Mg2+ listed, THF at nt 15 of strand 1 (N), EMSA: 20 mM HEPES pH 7.9, 1 mM DTT, 30 mM NaCl, 0.03% NP-40, 10% glycerol, 1 ug poly(dI-dC), 20 min room temperature, FP: 10 mM HEPES pH 7.5, 50 mM KCl
T1 sequence: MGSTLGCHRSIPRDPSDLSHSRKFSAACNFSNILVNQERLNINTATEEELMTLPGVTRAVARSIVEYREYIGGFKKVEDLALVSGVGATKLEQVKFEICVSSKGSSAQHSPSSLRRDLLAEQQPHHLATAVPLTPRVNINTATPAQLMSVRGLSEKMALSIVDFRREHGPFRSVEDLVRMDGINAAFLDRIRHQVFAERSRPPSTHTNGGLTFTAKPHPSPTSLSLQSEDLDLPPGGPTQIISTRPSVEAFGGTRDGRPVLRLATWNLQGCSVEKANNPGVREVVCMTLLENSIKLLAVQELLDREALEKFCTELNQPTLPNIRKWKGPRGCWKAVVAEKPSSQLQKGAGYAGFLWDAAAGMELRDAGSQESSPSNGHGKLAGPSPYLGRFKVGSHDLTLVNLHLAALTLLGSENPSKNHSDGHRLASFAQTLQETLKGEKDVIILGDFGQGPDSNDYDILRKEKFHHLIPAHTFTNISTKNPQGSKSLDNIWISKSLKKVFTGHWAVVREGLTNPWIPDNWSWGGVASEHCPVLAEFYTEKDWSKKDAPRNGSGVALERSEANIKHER

EEPD1 = target: T2, EEPD1 (Homo sapiens, UniProt Q7L9B9 1-569); assay: EMSA; 1 ug poly(dI-dC); less than THF fork; EMSA: 20 mM HEPES pH 7.9, 1 mM DTT, 30 mM NaCl, 0.03% NP-40, 10% glycerol, 1 ug poly(dI-dC), 20 min room temperature; FP: 10 mM HEPES pH 7.5, 50 mM KCl, 5 nM DNA, 0-1000 nM protein; settings: protein: recombinant; tags: FLAG; label: 32P 5'-end; fork 1:2 1:3 2:4
T2 sequence: T1 sequence

| Molecule | Kd (APE1 (Homo sapiens)) [nM] | Kd (EEPD1 (Homo sapiens)) [nM] | binding result (EEPD1) |
| --- | --- | --- | --- |
| CATGCAGCTGATGCNTACAACACACTGTG / TTTTCCCCCCCCCCCGCATCAGCTGCATG / CACAGTGTGTTGTA / GGGGGGGGGGAAAA | 21 | 81 |  |
| B1 |  |  | binds |
